# Assay results: paper doi:10.1101/788646
# Target: SlCGH1, choloylglycine hydrolase homolog Shew_0681 from Shewanella loihica PV-4 (Shewanella loihica PV-4)
# Assay: SEC + other: MALDI-TOF-MS
substance,measurement,value
"SlCGH1, choloylglycine hydrolase homolog Shew_0681 from Shewanella loihica PV-4 (enzyme)",stoichiometry N,2
